From article PMC12141716, “An archaeal nucleoid-associated protein binds an essential motif in DNA replication origins” (Nature Communications, 2025)

Key:
[1] = molecular target: UBP (ucm-binding protein), recombinant wild type (Sulfolobus islandicus REY15A) (UniProt F0NFD3); assay: crystal structure; DNA-free UBP, two crystal forms (C2221 and twinned P21 with four dimers in the asymmetric unit); sodium acetate pH 4.8-5.2, PEG6000, 20 °C
UBP [2] = molecular target: T1, UBP (Sulfolobus islandicus REY15A, UniProt F0NFD3 1-111); assay: EMSA; up to 740 nM UBP; EMSA: 50 mM K-acetate, 20 mM Tris-acetate, 10 mM Mg-acetate, 1 mM DTT, pH 7.9, 5-10% glycerol, 70 mM NaCl, 800 ng salmon sperm DNA per 10 ul, room temperature 10 min; footprinting same buffer, 4% glycerol, 8000 ng salmon sperm DNA; pull-down 25 mM HEPES pH 7.5, 150 mM NaCl, 10 mM MgCl, 100 uM ZnCl, 10 mM DTT, 48 C; details: protein: recombinant; tags: MBP tag removed by Factor Xa; 3 extra vector residues at N-terminus; chain copies: 2; label: 5'-32P
T1 sequence: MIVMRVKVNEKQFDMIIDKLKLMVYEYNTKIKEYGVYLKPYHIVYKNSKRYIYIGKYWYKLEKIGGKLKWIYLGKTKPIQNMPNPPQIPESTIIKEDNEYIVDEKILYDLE

UBP [3] = molecular target: T1, UBP; assay: EMSA; EMSA: 50 mM K-acetate, 20 mM Tris-acetate, 10 mM Mg-acetate, 1 mM DTT, pH 7.9, 5-10% glycerol, 70 mM NaCl, 800 ng salmon sperm DNA per 10 ul, room temperature 10 min; footprinting same buffer, 4% glycerol, 8000 ng salmon sperm DNA; pull-down 25 mM HEPES pH 7.5, 150 mM NaCl, 10 mM MgCl, 100 uM ZnCl, 10 mM DTT, 48 C; details: protein: recombinant; tags: MBP tag removed by Factor Xa; 3 extra vector residues at N-terminus; chain copies: 2; label: 5'-32P; blunt
UBP [4] = molecular target: T1, UBP; assay: EMSA; 370 nM UBP; EMSA: 50 mM K-acetate, 20 mM Tris-acetate, 10 mM Mg-acetate, 1 mM DTT, pH 7.9, 5-10% glycerol, 70 mM NaCl, 800 ng salmon sperm DNA per 10 ul, room temperature 10 min; footprinting same buffer, 4% glycerol, 8000 ng salmon sperm DNA; pull-down 25 mM HEPES pH 7.5, 150 mM NaCl, 10 mM MgCl, 100 uM ZnCl, 10 mM DTT, 48 C; details: protein: recombinant; tags: MBP tag removed by Factor Xa; 3 extra vector residues at N-terminus; chain copies: 2; label: 5'-32P; blunt
MCM-NT = molecular target: T2, MCM-NT (Sulfolobus islandicus REY15A, UniProt F0NF15 1-266); assay: EMSA; without UBP; EMSA: 50 mM K-acetate, 20 mM Tris-acetate, 10 mM Mg-acetate, 1 mM DTT, pH 7.9, 5-10% glycerol, 70 mM NaCl, 800 ng salmon sperm DNA per 10 ul, room temperature 10 min; footprinting same buffer, 4% glycerol, 8000 ng salmon sperm DNA; pull-down 25 mM HEPES pH 7.5, 150 mM NaCl, 10 mM MgCl, 100 uM ZnCl, 10 mM DTT, 48 C; details: protein: recombinant; tags: C-terminal 6xHis; chain copies: 6; label: 5'-32P; blunt
T2 sequence: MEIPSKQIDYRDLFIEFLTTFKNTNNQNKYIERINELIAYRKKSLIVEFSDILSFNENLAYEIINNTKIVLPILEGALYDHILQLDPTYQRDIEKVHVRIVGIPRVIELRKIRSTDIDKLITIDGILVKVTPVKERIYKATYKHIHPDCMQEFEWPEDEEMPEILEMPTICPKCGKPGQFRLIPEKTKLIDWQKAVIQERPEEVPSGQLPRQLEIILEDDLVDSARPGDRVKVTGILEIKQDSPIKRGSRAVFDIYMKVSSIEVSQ

MCM = molecular target: T3, MCM (UniProt F0NF15 1-686); assay: as above; details: protein: recombinant; chain copies: 6; label: 5'-32P; blunt
T3 sequence: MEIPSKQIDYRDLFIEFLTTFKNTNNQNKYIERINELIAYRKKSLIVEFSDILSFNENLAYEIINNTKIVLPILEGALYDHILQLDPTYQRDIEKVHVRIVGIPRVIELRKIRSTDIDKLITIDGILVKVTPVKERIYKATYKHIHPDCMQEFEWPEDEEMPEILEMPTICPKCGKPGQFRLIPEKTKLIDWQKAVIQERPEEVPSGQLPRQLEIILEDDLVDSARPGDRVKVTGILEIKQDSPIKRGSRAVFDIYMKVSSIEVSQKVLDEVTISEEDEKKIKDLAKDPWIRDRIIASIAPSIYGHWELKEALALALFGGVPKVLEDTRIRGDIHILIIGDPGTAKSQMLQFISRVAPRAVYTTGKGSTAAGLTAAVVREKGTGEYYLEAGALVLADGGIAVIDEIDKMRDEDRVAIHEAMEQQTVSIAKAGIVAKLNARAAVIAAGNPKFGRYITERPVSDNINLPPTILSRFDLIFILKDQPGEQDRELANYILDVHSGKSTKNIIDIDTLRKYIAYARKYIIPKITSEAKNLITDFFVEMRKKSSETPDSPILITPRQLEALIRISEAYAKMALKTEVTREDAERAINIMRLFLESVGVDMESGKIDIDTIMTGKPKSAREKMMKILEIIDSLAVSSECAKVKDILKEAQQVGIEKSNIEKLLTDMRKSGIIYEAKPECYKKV

UBP;MCM-NT = molecular target: T4, UBP;MCM-NT (Sulfolobus islandicus REY15A;Sulfolobus …, UniProt F0NFD3;F0NF15 1-111;1-266, |); assay: EMSA; 370 nM UBP; preferred over naked DNA; EMSA: 50 mM K-acetate, 20 mM Tris-acetate, 10 mM Mg-acetate, 1 mM DTT, pH 7.9, 5-10% glycerol, 70 mM NaCl, 800 ng salmon sperm DNA per 10 ul, room temperature 10 min; footprinting same buffer, 4% glycerol, 8000 ng salmon sperm DNA; pull-down 25 mM HEPES pH 7.5, 150 mM NaCl, 10 mM MgCl, 100 uM ZnCl, 10 mM DTT, 48 C; details: protein: recombinant;recombinant; tags: MBP tag removed by Factor Xa; 3 extra vector residues at N-terminus;C-terminal 6xHis; label: 5'-32P; blunt
T4 sequence 1: T1 sequence
T4 sequence 2: T2 sequence

UBP;MCM = molecular target: T5, UBP;MCM (Sulfolobus islandicus REY15A;Sulfolobus …, UniProt F0NFD3;F0NF15 1-111;1-686, |); assay: as above; details: protein: recombinant;recombinant; tags: MBP tag removed by Factor Xa; 3 extra vector residues at N-terminus;; label: 5'-32P; blunt
T5 sequence 1: T1 sequence
T5 sequence 2: T3 sequence

UBP [5] = molecular target: T1, UBP; assay: EMSA; 0-740 nM UBP; EMSA: 50 mM K-acetate, 20 mM Tris-acetate, 10 mM Mg-acetate, 1 mM DTT, pH 7.9, 5-10% glycerol, 70 mM NaCl, 800 ng salmon sperm DNA per 10 ul, room temperature 10 min; footprinting same buffer, 4% glycerol, 8000 ng salmon sperm DNA; pull-down 25 mM HEPES pH 7.5, 150 mM NaCl, 10 mM MgCl, 100 uM ZnCl, 10 mM DTT, 48 C; details: protein: recombinant; tags: MBP tag removed by Factor Xa; 3 extra vector residues at N-terminus; chain copies: 2; label: 5'-32P; blunt
[6] = molecular target: T6, MCM replicative helicase, full-length recombinant (Sulfolobus islandicus REY15A, UniProt F0NF15 1-686); assay: MCM recruitment (in vitro loading) assay on bead-bound origin DNA; 200 pM DNA on magnetic beads, UBP and/or Orc1-1 E147A 1 µM, 2 mM ATP, 50 °C, MCM 12.9 nM; washes with binding buffer and with 500 mM potassium acetate; western blot; details: both partners purified
T6 construct: MCM replicative helicase, Sulfolobus islandicus REY15A, SiRe_1228; The introduction and discussion call archaeal MCM a homohexamer (cited work); also called full-length MCM; recombinant MCM
T6 sequence (looked up): T3 sequence

UBP (DNA co-crystal) = molecular target: T7, UBP (DNA co-crystal) (Sulfolobus islandicus REY15A, UniProt F0NFD3 1-111); assay: X-ray crystallography; 1.8 A; EMSA: 50 mM K-acetate, 20 mM Tris-acetate, 10 mM Mg-acetate, 1 mM DTT, pH 7.9, 5-10% glycerol, 70 mM NaCl, 800 ng salmon sperm DNA per 10 ul, room temperature 10 min; footprinting same buffer, 4% glycerol, 8000 ng salmon sperm DNA; pull-down 25 mM HEPES pH 7.5, 150 mM NaCl, 10 mM MgCl, 100 uM ZnCl, 10 mM DTT, 48 C; details: protein: recombinant; tags: MBP tag removed by Factor Xa; 3 extra vector residues at N-terminus; blunt
T7 sequence: T1 sequence

UBP (ucm-binding protein), recombinant wild type (from UniProt F0NFD3 1-111)
stoichiometry N [1]: 2

AATTCTTTTGTATAATGGTT (ssDNA) [ucm 20 nt lower strand (P18)]
binding result (UBP [2]): no binding

B1: ucm 50 bp WT (P5/P6) (dsDNA)
DNA 1: TTGTTATAATTAGATAACCATTATACAAAAGAATTGTATAAGAATGAAAT
DNA 2: ATTTCATTCTTATACAATTCTTTTGTATAATGGTTATCTAATTATAACAA
binding result (UBP [3]): binds

B2: scr 50 bp (P7/P8) (dsDNA)
DNA 1: ATAATATTTGAAATTAAATGCTTAGTGAATATACGTACAGAATAAAAATT
DNA 2: AATTTTTATTCTGTACGTATATTCACTAAGCATTTAATTTCAAATATTAT
binding result (UBP [3]): no binding

B3: oriC1 140 bp (P21/P22) (dsDNA)
DNA 1: TATTTTGAGCAACATTTTGTTATAATTAGATAACCATTATACAAAAGAATTGTATAAGAATGAAATCAAAGCTTATTTTATGTCACTAGAATCTCCAAATGAAATACTGGGGTAGGCCTTGTTTATGACACAACTTACAT
DNA 2: ATGTAAGTTGTGTCATAAACAAGGCCTACCCCAGTATTTCATTTGGAGATTCTAGTGACATAAAATAAGCTTTGATTTCATTCTTATACAATTCTTTTGTATAATGGTTATCTAATTATAACAAAATGTTGCTCAAAATA
binding result (UBP [4]): binds | binding result (MCM-NT): binds | binding result (MCM): binds | binding result (UBP;MCM-NT): binds | binding result (UBP;MCM): binds

AACCATTATACAAAAGAATT (ssDNA) [ucm 20 nt top strand (P17)]
binding result (UBP [2]): no binding

B4: ucm 20 bp (P17/P18) (dsDNA)
DNA 1: AACCATTATACAAAAGAATT
DNA 2: AATTCTTTTGTATAATGGTT
binding result (UBP [5]): binds

B5: Orc1-1 E147A (Walker B mutant) (natural protein, Sulfolobus islandicus REY15A, UniProt F0NBP2 1-397, looked up)
chain: MSDIIDEVISSFRTSSIFVNREYLMPDYIPDELPHRENQIRKIASILAPLYREEKPNNIFIYGLTGTGKTAVVKFVLSRFHKKFLGKFKYIYINTRQIDTPYRVLADLLESLDVKVPFTGLSIAELYRRLVKAIREYDSQVVIVLDAIDAFVKRYNDDILYKLSRINSEVNRSKVSFIGITNDVKFVDLLDPRVKSSLSEEEIVFPPYNAEELEDILTKRAQMAFRPGVLPDNVIRLCAALAAREHGDARRALDLLRVAGEIAERLKDSKVKEEYVHLAKEEIERDRVRDIILTLPFHSKLVLTAVASMSSEDNVVLTTGAVYETYLNICKKLGVEPITQRRVSDIINELDMVGILRAKVVNRGRYGKTKEIGLAVDKNIIVKSLIESDSRFADLWG
notes: Orc1-1 replication initiator, Sulfolobus islandicus REY15A, SiRe_1740
binding result [6]: binds

B6: 12 bp ucm crystal DNA (P49/P50) (dsDNA)
DNA 1: ATTATACAAAAG
DNA 2: CTTTTGTATAAT
modifications: 5-bromo-dU at positions 2 and 5 of strand 1 and 2 and 9 of strand 2 (written T)
binding result (UBP (DNA co-crystal)): binds
